Here are results for 11 proteins from article PMC3024981, “It Takes Two to Tango: Defining an Essential Second Active Site in Pyridoxal 5′-Phosphate Synthase” (PLoS ONE, 2011).

In general, Km refers to the substrate concentration at which the rate is half of its maximum. As usually defined, the kcat is the number of substrate molecules converted per active site and unit of time at saturation. For orientation: kcat/Km means the second-order rate constant that governs catalysis at low substrate concentration. By stoichiometry N is commonly meant a count of units in the complex or per binding partner.

Where “and” joins values, the source holds several entries; their conditions need not be identical. Equal values may be shown once.

Substrate in the series “purified protein”: O=CC(O)COP(=O)(O)O
Briefly: purified protein. In kind it is biochemical, Bacillus subtilis. Conditions: R5P and glutamine as co-substrates, 50 mM Tris-Cl pH 7.5, 37°C.

Substrate in series [1]: NC(=O)CC[C@H](N)C(=O)O
Briefly: coupled glutaminase assay. In kind it is biochemical, Bacillus subtilis. Conditions: activated by wild-type Pdx1, 50 mM Tris-Cl pH 7.5, 37°C. The source says: coupled glutaminase assay on Pdx2 (glutaminase, activated by Pdx1)

Series [2] deals with the molecule itself. Briefly: SEC-MALS; Superdex 200 10/300 GL, 100 µl at 1 mg/ml; 50 mM potassium phosphate pH 7.5, 50 mM potassium chloride, 0.01% sodium azide; miniDAWN TREOS; dodecamer to hexamers. For orientation: Size exclusion chromatography separates by hydrodynamic size, large species first.

B1: PLP synthase (Pdx1 + Pdx2), native Pdx1 (Bacillus subtilis subsp. subtilis str. 168) (protein)
chain: AQTGTERVKRGMAEMQKGGVIMDVINAEQAKIAEEAGAVAVMALERVPADIRAAGGVARMADPTIVEEVMNAVSIPVMAKARIGHIVEARVLEAMGVDYIDESEVLTPADEEFHLNKNEYTVPFVCGCRDLGEATRRIAEGASMLRTKGEPGTGNIVEAVRHMRKVNAQVRKVVAMSEDELMTEAKNLGAPYELLLQIKKDGKLPVVNFAAGGVATPADAALMMQLGADGVFVGSGIFKSDNPAKFAKAIVEATTHFTDYKLIAELSKELGTAMKGIEISNLLPEQRMQERGW
notes: complex of untagged Pdx1 with Pdx2; 24-subunit complex; with Pyridoxal 5'-phosphate synthase subunit PdxT
As to B1, in “purified protein”, the Km came to 186 ± 17 µM, the kcat is 0.00055 ± 3.3e-05 s⁻¹ and the kcat/Km came out at 2.95 M⁻¹ s⁻¹.

B2: PLP synthase (Pdx1-His6 + Pdx2) (Bacillus subtilis subsp. subtilis str. 168; K187A) (protein)
chain: AQTGTERVKRGMAEMQKGGVIMDVINAEQAKIAEEAGAVAVMALERVPADIRAAGGVARMADPTIVEEVMNAVSIPVMAKARIGHIVEARVLEAMGVDYIDESEVLTPADEEFHLNKNEYTVPFVCGCRDLGEATRRIAEGASMLRTKGEPGTGNIVEAVRHMRKVNAQVRKVVAMSEDELMTEAANLGAPYELLLQIKKDGKLPVVNFAAGGVATPADAALMMQLGADGVFVGSGIFKSDNPAKFAKAIVEATTHFTDYKLIAELSKELGTAMKGIEISNLLPEQRMQERGW
notes: complex of C-terminally hexahistidine-tagged Pdx1 with Pdx2-His6; with Pyridoxal 5'-phosphate synthase subunit PdxT
As to B2, in “purified protein” (His-tagged proteins), the Km amounted to 267 ± 18 µM, the kcat was 0.0005 ± 1.7e-05 s⁻¹ and the kcat/Km was 1.87 M⁻¹ s⁻¹.

B3: PLP synthase (Pdx1-His6 + Pdx2) (Bacillus subtilis subsp. subtilis str. 168; H115A) (protein)
chain: AQTGTERVKRGMAEMQKGGVIMDVINAEQAKIAEEAGAVAVMALERVPADIRAAGGVARMADPTIVEEVMNAVSIPVMAKARIGHIVEARVLEAMGVDYIDESEVLTPADEEFALNKNEYTVPFVCGCRDLGEATRRIAEGASMLRTKGEPGTGNIVEAVRHMRKVNAQVRKVVAMSEDELMTEAKNLGAPYELLLQIKKDGKLPVVNFAAGGVATPADAALMMQLGADGVFVGSGIFKSDNPAKFAKAIVEATTHFTDYKLIAELSKELGTAMKGIEISNLLPEQRMQERGW
notes: as for B2
B3: in “purified protein” (His-tagged proteins), the Km turned out to be 229 ± 55 µM, the kcat came out at 0.00013 ± 0 s⁻¹ and the specificity constant (kcat/Km) was 0.583 M⁻¹ s⁻¹.

B4: PLP synthase (Pdx1-His6 + Pdx2) (Bacillus subtilis subsp. subtilis str. 168) (protein)
chain: AQTGTERVKRGMAEMQKGGVIMDVINAEQAKIAEEAGAVAVMALERVPADIRAAGGVARMADPTIVEEVMNAVSIPVMAKARIGHIVEARVLEAMGVDYIDESEVLTPADEEFHLNKNEYTVPFVCGCRDLGEATRRIAEGASMLRTKGEPGTGNIVEAVRHMRKVNAQVRKVVAMSEDELMTEAKNLGAPYELLLQIKKDGKLPVVNFAAGGVATPADAALMMQLGADGVFVGSGIFKSDNPAKFAKAIVEATTHFTDYKLIAELSKELGTAMKGIEISNLLPEQRMQERGW
notes: as for B2
As to B4, in the series “purified protein” (His-tagged proteins), the Km came to 155 ± 23 µM, the kcat amounted to 0.0006 ± 8.3e-05 s⁻¹ and the kcat/Km is 3.87 M⁻¹ s⁻¹.

B5: PLP synthase (Pdx1-His6 + Pdx2) (Bacillus subtilis subsp. subtilis str. 168; H115A/R138A) (protein)
chain: AQTGTERVKRGMAEMQKGGVIMDVINAEQAKIAEEAGAVAVMALERVPADIRAAGGVARMADPTIVEEVMNAVSIPVMAKARIGHIVEARVLEAMGVDYIDESEVLTPADEEFALNKNEYTVPFVCGCRDLGEATRAIAEGASMLRTKGEPGTGNIVEAVRHMRKVNAQVRKVVAMSEDELMTEAKNLGAPYELLLQIKKDGKLPVVNFAAGGVATPADAALMMQLGADGVFVGSGIFKSDNPAKFAKAIVEATTHFTDYKLIAELSKELGTAMKGIEISNLLPEQRMQERGW
notes: as for B2
As for B5, in “purified protein” (His-tagged proteins), the Km amounted to 307 ± 75 µM, the kcat came out at 0.0001 ± 0 s⁻¹ and the kcat/Km came out at 0.333 M⁻¹ s⁻¹.

B6: PLP synthase (Pdx1-His6 + Pdx2) (Bacillus subtilis subsp. subtilis str. 168; E105D) (protein)
chain: AQTGTERVKRGMAEMQKGGVIMDVINAEQAKIAEEAGAVAVMALERVPADIRAAGGVARMADPTIVEEVMNAVSIPVMAKARIGHIVEARVLEAMGVDYIDESDVLTPADEEFHLNKNEYTVPFVCGCRDLGEATRRIAEGASMLRTKGEPGTGNIVEAVRHMRKVNAQVRKVVAMSEDELMTEAKNLGAPYELLLQIKKDGKLPVVNFAAGGVATPADAALMMQLGADGVFVGSGIFKSDNPAKFAKAIVEATTHFTDYKLIAELSKELGTAMKGIEISNLLPEQRMQERGW
notes: as for B2
As to B6, in “purified protein” (His-tagged proteins), the Km came to 249 ± 26 µM, the kcat was 0.000233 ± 1.7e-05 s⁻¹ and the kcat/Km was found to be 0.933 M⁻¹ s⁻¹.

B7: PLP synthase (Pdx1-His6 + Pdx2) (Bacillus subtilis subsp. subtilis str. 168; R138A) (protein)
chain: AQTGTERVKRGMAEMQKGGVIMDVINAEQAKIAEEAGAVAVMALERVPADIRAAGGVARMADPTIVEEVMNAVSIPVMAKARIGHIVEARVLEAMGVDYIDESEVLTPADEEFHLNKNEYTVPFVCGCRDLGEATRAIAEGASMLRTKGEPGTGNIVEAVRHMRKVNAQVRKVVAMSEDELMTEAKNLGAPYELLLQIKKDGKLPVVNFAAGGVATPADAALMMQLGADGVFVGSGIFKSDNPAKFAKAIVEATTHFTDYKLIAELSKELGTAMKGIEISNLLPEQRMQERGW
notes: as for B2
Take B7: in the series “purified protein” (His-tagged proteins), the Km is 262 ± 26 µM, the kcat amounted to 0.0002 ± 1.7e-05 s⁻¹ and the kcat/Km was determined as 0.767 M⁻¹ s⁻¹.

B8: Pdx2 (glutaminase, activated by Pdx1) (Bacillus subtilis subsp. subtilis str. 168) (protein)
chain: MLTIGVLGLQGAVREHIHAIEACGAAGLVVKRPEQLNEVDGLILPGGESTTMRRLIDTYQFMEPLREFAAQGKPMFGTCAGLIILAKEIAGSDNPHLGLLNVVVERNSFGRQVDSFEADLTIKGLDEPFTGVFIRAPHILEAGENVEVLSEHNGRIVAAKQGQFLGCSFHPELTEDHRVTQLFVEMVEEYKQKALV
notes: Pdx2 with untagged wild-type Pdx1; with Pyridoxal 5'-phosphate synthase subunit PdxS
As to B8, in series [1], the Km was found to be 1160 ± 180 µM, the kcat came out at 0.0295 ± 0.00133 s⁻¹ and the kcat/Km was 25.5 M⁻¹ s⁻¹.

B9: Pdx1 wild type (Bacillus subtilis), native (untagged) (enzyme)
chain: MAQTGTERVKRGMAEMQKGGVIMDVINAEQAKIAEEAGAVAVMALERVPADIRAAGGVARMADPTIVEEVMNAVSIPVMAKARIGHIVEARVLEAMGVDYIDESEVLTPADEEFHLNKNEYTVPFVCGCRDLGEATRRIAEGASMLRTKGEPGTGNIVEAVRHMRKVNAQVRKVVAMSEDELMTEAKNLGAPYELLLQIKKDGKLPVVNFAAGGVATPADAALMMQLGADGVFVGSGIFKSDNPAKFAKAIVEATTHFTDYKLIAELSKELGTAMKGIEISNLLPEQRMQERGW
notes: Pdx1, synthase subunit of PLP synthase, Bacillus subtilis; construct pETBsPdx1 of Raschle et al. (2005); Native means untagged; Dodecamer by SEC-MALS; also called BsPdx1 wild type; PLP synthase synthase subunit; source: construct pETBsPdx1; expressed and purified as described by Raschle et al. (2005); copies: 12
For B9, the “stoichiometry N” value in series [2] is 12.

B10: Pdx1 K187A (Bacillus subtilis), hexahistidine tagged (enzyme)
chain: MAQTGTERVKRGMAEMQKGGVIMDVINAEQAKIAEEAGAVAVMALERVPADIRAAGGVARMADPTIVEEVMNAVSIPVMAKARIGHIVEARVLEAMGVDYIDESEVLTPADEEFHLNKNEYTVPFVCGCRDLGEATRRIAEGASMLRTKGEPGTGNIVEAVRHMRKVNAQVRKVVAMSEDELMTEAANLGAPYELLLQIKKDGKLPVVNFAAGGVATPADAALMMQLGADGVFVGSGIFKSDNPAKFAKAIVEATTHFTDYKLIAELSKELGTAMKGIEISNLLPEQRMQERGW
notes: Pdx1, synthase subunit of PLP synthase, Bacillus subtilis; parent construct pETBsPdx1-His6 of Strohmeier et al. (2006); It is in a dodecamer:hexamer equilibrium by SEC-MALS; also called Pdx1 K187A mutein; source: site directed mutagenesis of Pdx1; expressed and purified as described by Raschle et al. (2005); not shown: His6, C-terminal, kept
As for B10, in series [2], the “stoichiometry N” value is 12 and 6.

B11: Pdx1 R288A (Bacillus subtilis), native (untagged) (enzyme)
chain: MAQTGTERVKRGMAEMQKGGVIMDVINAEQAKIAEEAGAVAVMALERVPADIRAAGGVARMADPTIVEEVMNAVSIPVMAKARIGHIVEARVLEAMGVDYIDESEVLTPADEEFHLNKNEYTVPFVCGCRDLGEATRRIAEGASMLRTKGEPGTGNIVEAVRHMRKVNAQVRKVVAMSEDELMTEAKNLGAPYELLLQIKKDGKLPVVNFAAGGVATPADAALMMQLGADGVFVGSGIFKSDNPAKFAKAIVEATTHFTDYKLIAELSKELGTAMKGIEISNLLPEQAMQERGW
notes: Pdx1, synthase subunit of PLP synthase, Bacillus subtilis; also called Pdx1 R288A mutein; source: site directed mutagenesis of Pdx1; expressed and purified as described by Raschle et al. (2005); copies: 12
Turning to B11, the “stoichiometry N” value in series [2] was 12.
